Laboratory results: publication PMC10782944 (Science immunology, 2023)

Experiments:
Experiment in all cases: SPR
PHOX2B/HLA-A*24:02/β2m = PHOX2B/HLA-A*24:02/β2m (Homo sapiens, HLA-A*24:02, strain)
ATG2A/HLA-A*24:02 = ATG2A/HLA-A*24:02 (Homo sapiens, HLA-A*24:02, strain)
[1] = target: CNGB3 peptide/HLA-A*24:02 (Homo sapiens, HLA-A*24:02, strain)
GLB1 peptide/HLA-A*24:02 = GLB1 peptide/HLA-A*24:02 (Homo sapiens, HLA-A*24:02, strain)

Kd (PHOX2B/HLA-A*24:02/β2m): 11 nM
Kd (ATG2A/HLA-A*24:02): 1000 nM
binding result [1]: binds
binding result (GLB1 peptide/HLA-A*24:02): binds
B1: peptide-centric CAR (PC-CAR) 10LH, single-chain fragment variable (scFv) (scFv, V domains shown)
V domain 1: EVQLLESGGGLVQPGGSLRLSCAASGFTFDSYAMSWVRQAPGKGLEWVSAISGYGGSTYYADSVKGRFTISRDNSKNTLYLQMNSLRAEDTAVYYCAKYTYFLDAFDIWGQGTMVTVSS
V domain 2: QSVLTQPPSVSVSPGQTASITCSGDSLGNKYACWYQQKPGQSPVLVIYQDSKRPSGIPERFSGSNSGNTATLTISGTQAMDEADYYCQAWDSSRGYTVVFGTGTKVTVS
